Source: patent US20210338833A1 (MIT, published 2021)
Each block holds one binder with its values, some of them ahead of it. Bridge positions count the residues as written; N and C are the ends. Ends that are not written are not given here. * marks the point of attachment. Biotin = O=C1N[C@H]2[C@H](CS[C@H]2CCCCC(=O)*)N1

T1: FMC63 Mimotope Mutant RLCPWSAACREL
T1 construct: also called G9 with two alanines inserted between the cysteines
T1 peptide: RLCPWSAACREL

T2: FMC63 Mimotope Mutant RLCPWSACREL
T2 construct: also called G9 with one alanine inserted between the cysteines
T2 peptide: RLCPWSACREL

T3: biotinylated F12 mimotope RICPWNCKEL (no flanking residues) (not fully specified (bridges); cysteine pairing not given here)
T3 construct: Free peptide loaded on a streptavidin coated plate for ELISA; also called Bio-F12; F12 without flanking residues
T3 peptide: Biotin-RICPWNCKEL

T4: biotinylated F12 derivative SASRICPWNCKEL (not fully specified (bridges); cysteine pairing not given here)
T4 construct: Free peptide loaded on a streptavidin coated plate for ELISA
T4 peptide: Biotin-SASRICPWNCKEL

T5: biotinylated F12 derivative GGGSASRICPWNCKEL (not fully specified (bridges); cysteine pairing not given here)
T5 construct: Free peptide loaded on a streptavidin coated plate for ELISA
T5 peptide: Biotin-GGGSASRICPWNCKEL

T6: biotinylated F12 derivative GGSGGGGSASRICPWNCKEL (not fully specified; biotinylated on the N-terminus)
T6 construct: Free peptide loaded on a streptavidin coated plate for ELISA
T6 peptide: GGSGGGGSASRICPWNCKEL

T7: biotinylated F12 derivative GSGGGGSGGGGSASRICPWNCKEL (not fully specified; biotinylated on the N-terminus)
T7 construct: Free peptide loaded on a streptavidin coated plate for ELISA
T7 peptide: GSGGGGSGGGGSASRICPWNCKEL

T8: biotinylated F12 derivative GGGGSGGGGSGGGGSASRICPWNCKEL (not fully specified; biotinylated on the N-terminus)
T8 construct: Free peptide loaded on a streptavidin coated plate for ELISA
T8 peptide: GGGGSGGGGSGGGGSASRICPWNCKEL

T9: FMC63 Mimotope (G9) RLCPWSCREL
T9 construct: Parent of the alanine scan
T9 peptide: RLCPWSCREL

T10: FMC63 Mimotope Mutant RLCPWSCREA
T10 construct: also called G9 X5 (Leu 10) to Ala
T10 peptide: RLCPWSCREA

T11: FMC63 Mimotope Mutant RLCPWSCRAL
T11 construct: also called G9 X4 (Glu 9) to Ala
T11 peptide: RLCPWSCRAL

T12: FMC63 Mimotope Mutant RLCPWSCAEL
T12 construct: also called G9 X3 (Arg 8) to Ala
T12 peptide: RLCPWSCAEL

T13: FMC63 Mimotope Mutant RLCPWACREL
T13 construct: also called G9 X2 (Ser 6) to Ala
T13 peptide: RLCPWACREL

T14: FMC63 Mimotope Mutant RACPWSCREL
T14 construct: also called G9 X1 (Leu 2) to Ala
T14 peptide: RACPWSCREL

T15: FMC63 Mimotope (C5) RMCPWSCYEL
T15 peptide: RMCPWSCYEL

T16: FMC63 Mimotope (C7) RLCPWACQEQ
T16 peptide: RLCPWACQEQ

T17: FMC63 Mimotope (H1) RVCPWSCMPI
T17 construct: Not the 1D3 mimotope that is also called H1
T17 peptide: RVCPWSCMPI

T18: FMC63 Mimotope (E6) RLCPWSCVPI
T18 peptide: RLCPWSCVPI

T19: FMC63 Mimotope (G11) RLCPWNCREL
T19 peptide: RLCPWNCREL

T20: FMC63 Mimotope (F12) RICPWNCKEL
T20 construct: also called F12 mimotope
T20 peptide: RICPWNCKEL

T21: FMC63 Mimotope (F8) RLCPWDCREL
T21 peptide: RLCPWDCREL

T22: FMC63 Mimotope (H8) RICPWACVEL
T22 peptide: RICPWACVEL

T23: FMC63 Mimotope (H11) RICPWSCREL
T23 peptide: RICPWSCREL

T24: FMC63 Mimotope (B7) RICPWSCMVV
T24 peptide: RICPWSCMVV

B1: FMC63 IgG (antibody, V domains shown)
VH: EVKLQESGPGLVAPSQSLSVTCTVSGVSLPDYGVSWIRQPPRKGLEWLGVIWGSETTYYNSALKSRLTIIKDNSKSQVFLKMNSLQTDDTAIYYCAKHYYYGGSYAMDYWGQGTSVTVSS
VL: DIQMTQTTSSLSASLGDRVTISCRASQDISKYLNWYQQKPDGTVKLLIYHTSRLHSGVPSRFSGSGSGTDYSLTISNLEQEDIATYFCQQGNTLPYTFGGGTKLEIT
notes: Murine monoclonal antibody to human CD19; also called FMC63 IgG antibody; biotinylated FMC63 IgG

Experiments:
[1] = molecular target: T1, FMC63 Mimotope Mutant RLCPWSAACREL; test: flow cytometry of yeast clones stained with FMC63 IgG; stacked histograms, no unstained control drawn
Protocol: (§1) Specifically, a representative mimotope, […] […] To generate mutations, two complementary oligos with the codon replaced at the desired site were denatured at 95° C. and annealed by slow cooling to 25° C. (decreasing by 0.5° C./second). The annealed oligos were treated with T4 PNK (T4 Polynucleotide Kinase) to add a terminal phosphate, and then ligated into digested pCT-CON2 vector. Positive clones having the correct oligo inserted were tested and transformed into competent EBY100 yeast cells.

[2] = molecular target: T2, FMC63 Mimotope Mutant RLCPWSACREL; test: as above
Protocol: as §1

[3] = molecular target: T3, biotinylated F12 mimotope RICPWNCKEL …; test: ELISA, biotinylated peptide on a streptavidin plate, OD(450nm) against the FMC63 IgG concentration (nM)
[4] = molecular target: T4, biotinylated F12 derivative …; test: as above
[5] = molecular target: T5, biotinylated F12 derivative …; test: as above
[6] = molecular target: T6, biotinylated F12 derivative …; test: as above
[7] = molecular target: T7, biotinylated F12 derivative …; test: as above
[8] = molecular target: T8, biotinylated F12 derivative …; test: as above
[9] = molecular target: T9, FMC63 Mimotope (G9) RLCPWSCREL; test: flow cytometry of yeast clones stained with FMC63 IgG (5 µM by paragraph 811); stacked histograms, no unstained control drawn
Protocol: as §1

[10] = molecular target: T10, FMC63 Mimotope Mutant RLCPWSCREA; test: as above
Protocol: as §1

[11] = molecular target: T11, FMC63 Mimotope Mutant RLCPWSCRAL; test: as above
Protocol: as §1

[12] = molecular target: T12, FMC63 Mimotope Mutant RLCPWSCAEL; test: as above
Protocol: as §1

[13] = molecular target: T13, FMC63 Mimotope Mutant RLCPWACREL; test: as above
Protocol: as §1

[14] = molecular target: T14, FMC63 Mimotope Mutant RACPWSCREL; test: as above
Protocol: as §1

[15] = molecular target: T15, FMC63 Mimotope (C5) RMCPWSCYEL; test: flow cytometry of yeast clones titrated with biotinylated FMC63 IgG, MFI (geometric mean); axis without unit, nM by the legend paragraph 211
[16] = molecular target: T16, FMC63 Mimotope (C7) RLCPWACQEQ; test: as above
[17] = molecular target: T17, FMC63 Mimotope (H1) RVCPWSCMPI; test: as above
[18] = molecular target: T18, FMC63 Mimotope (E6) RLCPWSCVPI; test: as above
[19] = molecular target: T19, FMC63 Mimotope (G11) RLCPWNCREL; test: as above
[20] = molecular target: T20, FMC63 Mimotope (F12) RICPWNCKEL; test: as above
[21] = molecular target: T21, FMC63 Mimotope (F8) RLCPWDCREL; test: as above
[22] = molecular target: T22, FMC63 Mimotope (H8) RICPWACVEL; test: as above
[23] = molecular target: T23, FMC63 Mimotope (H11) RICPWSCREL; test: as above
[24] = molecular target: T24, FMC63 Mimotope (B7) RICPWSCMVV; test: as above
FMC63 IgG = molecular target: B1; test: ELISA with FMC63 IgG; ELISA with FMC63 IgG (FIG. 7); micromolar range

Binder: B1
binding result [1]: no binding | binding result [2]: no binding | binding result [3]: binds | binding result [4]: binds | binding result [5]: binds | binding result [6]: binds | binding result [7]: binds | binding result [8]: binds | binding result [9]: binds | binding result [10]: binds | binding result [11]: binds | binding result [12]: binds | binding result [13]: binds | binding result [14]: binds | binding result [15]: binds | binding result [16]: binds | binding result [17]: binds | binding result [18]: binds | binding result [19]: binds | binding result [20]: binds | binding result [21]: binds | binding result [22]: binds | binding result [23]: binds | binding result [24]: binds

Kd (FMC63 IgG): ~1400 nM
Binder: RHCPWNCSLL (disulfide 3-7 (inferred), Aga2p-HA-(G4S)3-AS-peptide, cf) [FMC63 Mimotope (A1) RHCPWNCSLL]
